{"source": "the supplement of paper PMC9170038", "data": [{"test_system": "MS2 coat protein", "assay": "apparent KD of MS2 coat protein; higher = weaker reporter binding", "conditions": "Eterna round: R107; input ligand: theophylline 2 mM", "protocol": "(§1)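 RNA-MaP round R107: designed RNA switches with theophylline, tryptophan, arginine or FMN aptamers are transcribed on-chip within common flanks. They are titrated with SNAP-549-labelled MS2 coat protein in RNA-MaP buffer (100 mM Tris pH 7.5, 80 mM KCl, 4 mM MgCl2), without ligand or with the indicated ligand. Median apparent KD per design.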", "units": {"apparent KD of MS2 coat protein": "nM"}, "values": [{"sequence": "GUCUCUGAGAGAAGGAGCGUGAAGACAUGAGGAUCACCCAUGUAGAGGCGCCGAAGGCGUUCGCAGGUAGGUCGCUCUCAGAGAC [#1 Same State - Arginine B Attempt #20 (HarryS)]", "apparent KD of MS2 coat protein": 17.5}, {"sequence": "UGUAUGUGAUCUGAUACCAGCGAUGAUAACCUGAGGAUCACCCUGGUAAGGCGAAAGCCUCGCCCUUGGCAGCAGAUCGCAUACU", "apparent KD of MS2 coat protein": 24}, {"sequence": "GGGUACAUCGCGGCCGCCACUCGUGUAAAUACAUGAGGAUCACCCAUGUCGAUGGAGACAUCGGAGAGGACCGGGUGAUGUACCG", "apparent KD of MS2 coat protein": 81.5}, {"sequence": "ACCGCAUCCGUAUAGGAUGCGGCCCAUGAAGGAGCGUGGGAAACCACAGGUAGGUCGCAUGGAUUACAUGAGGAUCACCCAUGUG [Skyfall]", "apparent KD of MS2 coat protein": 706}, {"sequence": "AUGCAUAGCCGAAGGAGCGCAAUAGAAUGACAUGAGGAUCACCCAUGUGUGUGAUGUGGAUUGCAGGUAGGUCGCGGAGUGGUAU [Exclusion - Arginine B (Freestyle 4)]", "apparent KD of MS2 coat protein": 48.1}, {"sequence": "UAUGCACAUGAGGAUCACCCAUGUAUGGAAGGAGCGGUGAAUAAACCAGGUAGGUCGCCAUGGUGAGGAUCAUCUAUGUAAUCGU [Exclusion - Arginine A (Freestyle 6)]", "apparent KD of MS2 coat protein": 103}, {"sequence": "CGCAACAUGAGGAUCACCCAUGUAAUGACGCGAGGACCGGUACGGCCGCCACUCGCCUGGCAGUGAGCGCAUGCGGCCUGGGUAU [Exclusion Tryp A GF8]", "apparent KD of MS2 coat protein": 14.3}, {"sequence": "AAAAGUGGGUCAAUUAUUUAAACUUCAGAAGGAGCGUGAUGUUUCACAGGUAGGUCGCUGAUAACAUGAGGAUCACCCAUGUAUU [JR_ExcArginiA_Sub007]", "apparent KD of MS2 coat protein": 54.4}, {"sequence": "CCUAUGCAGUCGGCCGCCACUGAAAUCAAUAAGAUUACCUCAGAAACAUGAGGAUCACCCAUGUACAGGACCGGGACUGUAUAGG [Ex Tryptophan B 16]", "apparent KD of MS2 coat protein": 37.2}, {"sequence": "UGUAUGGACUGAAGGAGCGGAUGAUAACCUGAGGAUCACCCGGGUAAUAAGGCGAAAGCCAUCCAGGUAGGUCGCAGUCCAUACU", "apparent KD of MS2 coat protein": 126}]}, {"test_system": "MS2 coat protein", "assay": "apparent KD of MS2 coat protein; higher = weaker reporter binding", "conditions": "Eterna round: R107; input ligand: tryptophan 2.4 mM", "protocol": "as §1", "units": {"apparent KD of MS2 coat protein": "nM"}, "values": [{"sequence": "UUGUUGUUUGGAAGGAGCGUGUAAGAUUAAGAACAUGAGGAUCACCCAUGUUGUAAGGUAGCACAGGUAGGUCGCCGGGUGGUGG [11.T]", "apparent KD of MS2 coat protein": 15.1}, {"sequence": "AUCGUACCUGAAGAUACCAGCAUGUGAUCAUAACAUGAGGAUCACCCAUGUAAUCAGUGAUGCCCUUGGCAGCUUGAUCGGUACA [Same State - Theophylline B (Freestyle 12)]", "apparent KD of MS2 coat protein": 30.2}, {"sequence": "GCACCAGGUACGGAUACCAGCUAUAGGCACAGAGGAGGACAUGAGGAUCACCCAUGUGAUGGCCCUUGGCAGCUGUACCUGGUGC [EThB NP+V+V2 #3]", "apparent KD of MS2 coat protein": 10.6}, {"sequence": "UCGGGCAUGGCGGCCGCCACUGGUUGGCGUGCGGAUGAGGGAACAUGAGGAUCACCCAUGUUGGUUAGGACCGGGCUUGCGUCGU [knkmullin]", "apparent KD of MS2 coat protein": 13.4}, {"sequence": "AAUAUAAUAUAAAUAAUAAUAAUAUCUGAUACCAGACUCUCAUGUGUCCCUUGGCAGCAGUAACAUGAGGAUCACCCAUGUAAUA [JR_Nu_SSTheophyA_Sub027]", "apparent KD of MS2 coat protein": 52}, {"sequence": "CUCGGUUGAUCCUAGCUGCCGAGAGGUGAUACCAGCAUCGAAAGAUGCCCUUGGCAGCACCAACAUGAGGAUCACCCAUGUAAUA [(MT)''-(M)'-(T')-(Theo)-(Ms2)_Design1/22_5]", "apparent KD of MS2 coat protein": 30.1}, {"sequence": "CAUGGGUGGGUGCUGCCACCCAUUGGUGAUACCAGCAUCGAAAGAUGCCCUUGGCAGCACCAACAUGAGGAUCACCCAUGUAAUA [(M)'-(T)'-(M)''-(T1)-(T2)-(M1)-(M2)_Design4]", "apparent KD of MS2 coat protein": 67.8}, {"sequence": "GCAUGUGGAGUCUUACUAGAGAGGACAGAUACCAGUAAGAUGUGAUACCCUUGGCAGCUGCGAUUUACAUGAGGAUCACCCAUGU [X-TheoA-ms2@67]", "apparent KD of MS2 coat protein": 24.7}, {"sequence": "UUUGAAAUAACAGAUACCAGCGUGUUAUAAAACAUGAGGAUCACCCAUGUAGUGAUCAAGCGCCCUUGGCAGCUGGUAUUUUAGG [7.F]", "apparent KD of MS2 coat protein": 172}, {"sequence": "ACAUGAGGAUCACCCAUGUAAUAAGGAGAAGGAGCGCGUAAGGACGCAGGUAGGUCGCUCGUGGUCCGGCCGCAAGGCCGGACCA [#1 Same State - Arginine A Attempt #8 (HarryS)]", "apparent KD of MS2 coat protein": 9.31}, {"sequence": "AUGGACGGCGAUCUGGGUUUACCAGAUCGGCGAGGACCGGUACGGCCGCCACUCGUGUUUAUUUAACAUGAGGAUCACCCAUGUA [SSTA #2]", "apparent KD of MS2 coat protein": 21.3}, {"sequence": "UGGUAGGUAGGAAGGAGCGCAUACUUCACAUGAGGAUCACCCAUGUCGAGACGUGAGUCAGUGCAGGUAGGUCGCCUAGUUAUGA [Same State - Arginine B (Freestyle 23)]", "apparent KD of MS2 coat protein": 30.3}, {"sequence": "ACCUGUACGAAAAGUGCAGGACAUGGAAAUCGAGGACCGGUACGGCCGCCACUCGUUGAAAACAAGUGGAUCACCCUUGUCCAUG [TrypAS 3 #AlternativeMS2 #Zipper #StaticStem]", "apparent KD of MS2 coat protein": 1070}, {"sequence": "GCCGGACUUUCGGCCGCCACUGAGAGAGUCGUGUGAACAUGAGGAUCACCCAUGUAAUAUAUAUACAGGACCGGGAGGGUUCGGC [4.S]", "apparent KD of MS2 coat protein": 12}, {"sequence": "GUCUCUGAGAGAAGGAGCGUGAAGACAUGAGGAUCACCCAUGUAGAGGCGCCGAAGGCGUUCGCAGGUAGGUCGCUCUCAGAGAC [#1 Same State - Arginine B Attempt #20 (HarryS)]", "apparent KD of MS2 coat protein": 18.4}, {"sequence": "UGUAUGUGAUCUGAUACCAGCGAUGAUAACCUGAGGAUCACCCUGGUAAGGCGAAAGCCUCGCCCUUGGCAGCAGAUCGCAUACU", "apparent KD of MS2 coat protein": 800}, {"sequence": "GGGUACAUCGCGGCCGCCACUCGUGUAAAUACAUGAGGAUCACCCAUGUCGAUGGAGACAUCGGAGAGGACCGGGUGAUGUACCG", "apparent KD of MS2 coat protein": 46.7}, {"sequence": "ACCGCAUCCGUAUAGGAUGCGGCCCAUGAAGGAGCGUGGGAAACCACAGGUAGGUCGCAUGGAUUACAUGAGGAUCACCCAUGUG [Skyfall]", "apparent KD of MS2 coat protein": 408}, {"sequence": "CUCGAGGCCGGUGAUACCAGACACGAAACUAUACAUGAGGAUCACCCAUGUCAAACAACGGUCCCUUGGCAGCAUGGGUGUAUCC [Enzabemage]", "apparent KD of MS2 coat protein": 33.3}, {"sequence": "CGAUCUUUCGAAAGAAGGAUCGAUUCUGAUACCAGAGACGAAAGUCUCCCUUGGCAGCAGUGCCAACAUGAGGAUCACCCAUGUA [Theophylline A 8]", "apparent KD of MS2 coat protein": 23.6}, {"sequence": "AUGCAUAGCCGAAGGAGCGCAAUAGAAUGACAUGAGGAUCACCCAUGUGUGUGAUGUGGAUUGCAGGUAGGUCGCGGAGUGGUAU [Exclusion - Arginine B (Freestyle 4)]", "apparent KD of MS2 coat protein": 30.5}, {"sequence": "CAAAACCUUACAGAUACCAGCACAUGAGGAUCACCCAUGUAUUGGACACUUCGCUCAUCGUGCCCUUGGCAGCUGUGGGACGAGG [Tiatenan]", "apparent KD of MS2 coat protein": 77.6}, {"sequence": "UAUGCACAUGAGGAUCACCCAUGUAUGGAAGGAGCGGUGAAUAAACCAGGUAGGUCGCCAUGGUGAGGAUCAUCUAUGUAAUCGU [Exclusion - Arginine A (Freestyle 6)]", "apparent KD of MS2 coat protein": 87.8}, {"sequence": "AAAAGUGGGUCAAUUAUUUAAACUUCAGAAGGAGCGUGAUGUUUCACAGGUAGGUCGCUGAUAACAUGAGGAUCACCCAUGUAUU [JR_ExcArginiA_Sub007]", "apparent KD of MS2 coat protein": 47}, {"sequence": "AAUGAUGCGAUCUACAGUCGAGGAUUCGAUACCAGCAACGGGCGUUGCCCUUGGCAGCGAGCUACAUGAGGAUCACCCAUGUUAC [theeternabot_exclusion_MS2_Theo_A_45]", "apparent KD of MS2 coat protein": 19.4}, {"sequence": "AGCCCUGUACUAGAUACCAGCUACAUGAGGAUCACCCAUGUGCGUCAAGACUGACUGUGUAGCCCUUGGCAGCUACUCGCAUGUA [Exclusion - Theophylline B (Freestyle 3)]", "apparent KD of MS2 coat protein": 14.9}, {"sequence": "CCUAUGCAGUCGGCCGCCACUGAAAUCAAUAAGAUUACCUCAGAAACAUGAGGAUCACCCAUGUACAGGACCGGGACUGUAUAGG [Ex Tryptophan B 16]", "apparent KD of MS2 coat protein": 84.3}, {"sequence": "UGUAUGGACUGAAGGAGCGGAUGAUAACCUGAGGAUCACCCGGGUAAUAAGGCGAAAGCCAUCCAGGUAGGUCGCAGUCCAUACU", "apparent KD of MS2 coat protein": 82.9}]}]}
